Experiments:
[1] = substrate: Oc1ccc(CCNCc2ccc(O)c(O)c2)cc1; experiment: LC-MS/MS methyltransferase assay, nonlinear regression; format: biochemical, Narcissus papyraceus; conditions: SAM as methyl donor, Mg^2+, product 4'-O-methylnorbelladine, optimized condition pH 7.4, 45 °C, 30 min
From the text: (§1) LC-MS/MS methyltransferase assay, nonlinear regression on NpOMT

[2] = substrate: O=Cc1ccc(O)c(O)c1; experiment: as above; format: biochemical, Narcissus papyraceus; conditions: SAM as methyl donor, Zn^2+, product vanillin (3-O-methylation, major product), optimized condition pH 7.4, 45 °C
From the text: as §1

B1: NpOMT (Narcissus papyraceus) (protein)
chain: MGASQDDYALIHKNILHSEELLKYILETSAYPREHEQLKGLREVTEKHEWSSALVPADEGLFLSMLLKLMNAKRTIEIGVYTGYSLLTTALALPEDGKITAIDVNKSFFEIGLPFIQKAGVEHKINFIESEALPVLDQMVQEMKEEDLYDYAFVDADKSNYANYHERLVKLVRVGGAILYDNTLWYGSVAYPEYPGLHPEEEVARLSFRQLNTLLAADPRVEISQVSIGDGVTICRRLY
notes: homodimer only modelled
- Km [1]: 169 ± 19 µM
- Vmax [1]: 10.9 µM/min
- kcat [1]: 0.0362 ± 0.004 s⁻¹
- kcat/Km [1]: 214 M⁻¹ s⁻¹
- Km [2]: 491 ± 51 µM
- Vmax [2]: 19.1 µM/min
- kcat [2]: 0.0637 ± 0.0025 s⁻¹
- kcat/Km [2]: 130 M⁻¹ s⁻¹

— article PMC11407090, “Kinetic and in silico structural characterization of norbelladine O-methyltransferase of Amaryllidaceae alkaloids biosynthesis” (The Journal of Biological Chemistry, 2024)
